B1: Cy5-labeled DBCO-CD276Ab (DBCO-CD276Ab-Cy5) (antibody, V domains shown)
VH: QVQLQQSGAELVKPGASVKLSCKASGYTFTNYDINWVRQRPEQGLEWIGWIFPGDGSTQYNEKFKGKATLTTDTSSSTAYMQLSRLTSEDSAVYFCARQTTATWFAYWGQGTLVTVSA
VL: DIVMTQSPATLSVTPGDRVSLSCRASQSISDYLHWYQQKSHESPRLLIKYASQSISGIPSRFSGSGSGSDFTLSINSVEPEDVGVYYCQNGHSFPLTFGAGTKLELK
notes: as in m1: constant region of the IgG heavy chain as far as it is not in PDB 5CMA; m1 chemically modified: DBCO-PEG4-NHS fed at 0.25 eq. to primary amines, then Cy5-NHS ester; also called the fabricated antibody; source: CD276Ab from Expi CHO cells, conjugated with DBCO-PEG4-NHS and Cy5-NHS ester, purified (Protein G HP SpinTrap)
B2: anti-CD276 antibody (CD276Ab), 8H9 antibody, IgG (antibody, V domains shown)
VH: B1 VH
VL: B1 VL
notes: heavy chain of 8H9; constant region of the IgG heavy chain as far as it is not in PDB 5CMA; light chain of 8H9; IgG; the fabrication scheme is said to be in the Supplementary Materials; also called 'as prepared' CD276Ab; source: Expi CHO cells, co-transfected with heavy and light chain vectors, purified from supernatant (rProtein A Sepharose, SEC)

Target: T1, CD276/B7-H3 (Homo sapiens (endogenous on DAOY …, UniProt Q5ZPR3))
T1 construct: CD276/B7-H3, transmembrane protein, endogenous on medulloblastoma patient-derived DAOY cells; source: endogenous, on GFP-expressing DAOY (HTB-186) medulloblastoma cells
Experiment: immunostaining of cells or tissue; inhibition assay on live GFP-expressing DAOY cells: CD276Ab at 0, 12.5, 25.0, 50.0 and 100 ug/mL for 1 h at 37 °C, washed, then DBCO-CD276Ab-Cy5 (30.0 ug/mL) for 1 h at 37 °C; Cy5 fluorescence within cells by confocal laser scanning microscopy
Settings: one partner purified

T1 sequence (Q5ZPR3 29-534): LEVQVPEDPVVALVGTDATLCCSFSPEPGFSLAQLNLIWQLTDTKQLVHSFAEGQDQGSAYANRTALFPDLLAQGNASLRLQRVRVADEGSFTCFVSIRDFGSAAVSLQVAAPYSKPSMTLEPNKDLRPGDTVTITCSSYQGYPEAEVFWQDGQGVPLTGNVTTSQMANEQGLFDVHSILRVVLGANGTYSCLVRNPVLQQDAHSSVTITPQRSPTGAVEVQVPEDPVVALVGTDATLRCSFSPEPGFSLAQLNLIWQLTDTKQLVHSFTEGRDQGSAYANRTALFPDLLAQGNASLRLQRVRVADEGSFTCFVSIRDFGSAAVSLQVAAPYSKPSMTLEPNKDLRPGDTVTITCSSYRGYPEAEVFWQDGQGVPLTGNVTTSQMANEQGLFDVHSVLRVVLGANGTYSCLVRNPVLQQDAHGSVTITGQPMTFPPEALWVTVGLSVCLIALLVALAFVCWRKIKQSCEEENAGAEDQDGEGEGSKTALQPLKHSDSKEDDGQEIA

Binder	binding result
B1	binds
B2	binds
